In the supplement of paper PMC9170038:

What was measured:
MS2 coat protein [1] = assay: apparent KD of MS2 coat protein, switch ON state; designed switch direction (-1 OFF switch, 1 ON switch): -1; higher = weaker reporter binding; conditions: FMN input: 0 or 200 uM; Eterna round: R93 (includes R88 designs)
Summary of the method: (§1)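 The designed RNA switches were transcribed on-chip from Illumina sequencing clusters. In 100 mM Tris-HCl pH 7.5, 80 mM KCl and 4 mM MgCl2, without or with constant ligand, they were titrated with SNAP-549-labelled MS2 coat protein from 0.7 or 1.5 nM to 3 µM in twofold steps. Apparent KD is the per-design median of normalised cluster binding-curve fits.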

MS2 coat protein [2] = assay: apparent KD of MS2 coat protein, switch OFF state (with FMN for OFF switches, without FMN for ON switches); designed switch direction (-1 OFF switch, 1 ON switch): -1; higher = weaker reporter binding; conditions: FMN input: 0 or 200 uM; Eterna round: R93 (includes R88 designs)
Summary of the method: as §1

| Sequence | apparent KD of MS2 coat protein (MS2 coat protein [1]) [µM] | apparent KD of MS2 coat protein (MS2 coat protein [2]) [µM] |
| --- | --- | --- |
| GAGGCUGAAGGAUAUACAAGGGCCUCACCGCCAAAACGGAAACAUGAGGAUCACCCAUGUAGAAGGUCAAUAAA [Reisvexe] | 0.0571 | 0.077 |
| GGUUGGCGAGGAUAUACAUGAGGAUCACCCAUGUGAGAGUAAAAAGUGAGAAAGAAAAGUAGAAGGCGCUGACG [salish99-ex3-46] | 0.0271 | 0.0851 |
| AGCUAGUGAGGAUAUACGAACAUGUCAAAAGACGUGAAGGGACAUGAGGAUCACCCAUGUAGAAGGCGCUAGCA [JL 74% mod] | 0.0534 | 0.157 |
| AGAUGACAUGAGGAUCACCCAUGUAAGGAUAUACGAGUAGGAGAAUAAAAUGAUAGAAGUAGAAGGUACGUAGA ['Exclusion 1' Lab (2)] | 0.068 | 0.0581 |
| AGUGAGUGAGGAUAUGCCUGAAGAAUAAAAGAAAUAACGAGGCAGAAGGCACAUGAGGAUCACCCAUGUACACA [May 65] | 0.0321 | 0.0282 |
| AGCUACUGAGGAUAUACGAACAUGUCAAAAGACGUAAGGGAACAUGAGGAUCACCCAUGUAGAAGGCAGUAGCA [Diamond 49] | 0.0445 | 0.0919 |
| AAAAAGCGAGGAUAUACAUGAGGAUCACCCAUGUAAAAAAAAAGAGAUGAAACAUCAUGUAGAAGGCGCAAAAA [Excls3-I] | 0.131 | 0.0671 |
| AAAAAGUGAGGAUAUACGCUGAGGAGUAGACACAACCUGGCGUAGAAGGCACAUGAGGAUCACCCAUGUCCAAA [EX4 Malc#12] | 0.0243 | 0.0415 |
| AAGAAGACAGGAUAUACAUGAAAGAAAGAAAAGAAAAGAAAACAUGAGGAUCACCCAUGUAGAAGGGUCAAGAA [EteRNA is fun!] | 0.0235 | 0.0349 |
| AAGGGACAUGAGGAUCACCCAUGUCAGGAUAUGCGAAAAAAAAAAAUAAAAAAAAAAAGCAGAAGGGACACCAA [Mat - Exclusion 1 - Eli mod - D58] | 0.104 | 0.102 |
| AGGAAACAUGAGGAUCACCCAUGUGAGGAUAUUGAAAAGAAAAGAAAAGAAAGAAGAACAAGAAGGUACAAGAA [Nyuserre Ini] | 0.0223 | 0.0273 |
| CUCAAGUGAGGAUAUAUAAGAAAAGAAGAGAAAGAAAAGAAAUAGAAGGCACAUGAGGAUCACCCAUGUAAGAA [EteRNA is fun!] | 0.0295 | 0.0241 |
| CUCAAGUCAGGAUAUUUAAGAAAAGAAGAGAAAGAAAAGAAAAAGAAGGGACAUGAGGAUCACCCAUGUAAGAA [EteRNA is fun!] | 0.0604 | 0.0413 |
| ACAGUUACAGGAUAUACAAGGGUAACUUCAAAUAAACCUCUACAUGAGGAUCACCCAUGUAGAAGGGUAACUGA [Ex2 Design 200 (maybe): Random 16] | 0.0228 | 0.0217 |
| AAAAAUGGAGGAUAUACAUGAGGAUCACCCAUGUGAAACAAAAAAAAAAACAAAAAAAGUAGAAGGCCAAAAAA [Gilly Gone Silly 2 - Jieux - Exclusion 3] | 0.0367 | 0.0536 |
| AAAAAGUGAGGAUAUCGGAAAAAAAAAAAAAAAAAAAAAAACGAGAAGGCACAUGAGGAUCACCCAUGUAAAAA [all GC all the time + G boost - take 2] | 0.0422 | 0.0456 |
| AAAAAACAUGAGGAUCACCCAUGUGAGGAUAUGCUAAAAAAAUCCGCAUGAAAAAAUAGCAGAAGGCACAUAAA [PK2] | 0.0296 | 0.0525 |
| AAAAACUGAGGAUAUACAUGAGGAUCACCCAUGUGAAAGAACGAAAAACGAAAAGCAAGUAGAAGGCAGAAAAA [Ruby 77] | 0.0209 | 0.0261 |
| AGAAACUGAGGAUAUACUUUGGGAAAAGAAAAGAUGAUGUUACAUGAGGAUCACCCAUGUAGAAGGCAGAAAGA [Mat - Exclusion 2 - Mod - D152] | 0.0255 | 0.0303 |
| AAAAAGCUAGGAUAUACGAAAAAAAAGGGUAGAAAAAAAAAACAUGAGGAUCACCCAUGUAGAAGGAGCAAAAA [Mat - Exclusion 2 - Tesla mod - D34] | 0.0515 | 0.103 |

| Sequence | apparent KD of MS2 coat protein (MS2 coat protein [1]) [µM] | apparent KD of MS2 coat protein (MS2 coat protein [2]) [µM] |
| --- | --- | --- |
| AGCUAGUCAGGAUAUACGAAAAUGCUAGAAGACGUAAGGGAACAUGAGGAUCACCCAUGUAGAAGGGACUAGCA [Diamond 46] | 0.0219 | 0.0304 |
| AAAAACCUAGGAUAUACAUGAGGAUCACCCAUGUAAAGAAACAAAAAGGGAAACACAAGUAGAAGGAGGAAGAA [JR_Exc003_Sub1203] | 0.0226 | 0.0274 |
| GAAGUGUUAGGAUAUCGAUGAAUAAUAAAACAAAGGAACAUUGAGAAGGAACAUGAGGAUCACCCAUGUAAAAC [May 82] | 0.0334 | 0.0256 |
| AGUCUGAGAGGAUAUACAUGGGAAAAAAAAGUCAGAUCCCUACAUGAGGAUCACCCAUGUAGAAGGCUCUGACA [Ex2 Design 147: Sub-opt 11] | 0.0222 | 0.0114 |
| AAGAAGGUAGGAUAUACUAGGGCAACUAAUGCAAAGAUAGAACAUGAGGAUCACCCAUGUAGAAGGGCCAGAAA [JR_Exc002_Sub402] | 0.0357 | 0.0405 |
| AAAAAACAUGAGGAUCACCCAUGUAAGGAUAUCGGAAAAGGAAAAAAAAAAAAGAAGACGAGAAGGUACACCAA | 0.0259 | 0.0315 |
| GCUGGCCAAGGAUAUACAUGAGGAUCACCCAUGUGAGAGAAAAAAGUGAGAAAGAAAAGUAGAAGGUGGGUAGG [salish99-ex3-111] | 0.059 | 0.0569 |
| AAACGUAGAGGAUAUACAGGGCUAUUACGAAAGUAAUAGAAACAUGAGGAUCACCCAUGUAGAAGGCUACGAAA [Mod2 of Meechl 64% 1] | 0.162 | 0.0679 |
| GGUUGGCGAGGAUAUACAUGAGGAUCACCCAUGUGAGAGAAAUAAGUGAGAAAGAAAAGUAGAAGGCGCUGACG [salish99-ex3-43] | 0.0877 | 1.7 |
| AAGAAUCGAGGAUAUACAUGAGGAUCACCCAUGUAAAAGAAAGAGGGAAAAGAGAAAAGUAGAAGGCGAAAGAA [Ptolemy Memphitis] | 0.0459 | 0.0216 |
| AAAAAACAUGAGGAUCACCCAUGUAAGGAUAUGCUAAAAAAAAAAAAAAAAAAAAAAUGCAGAAGGUACAAAAA [water's exclusion 1 again] | 0.0404 | 0.0402 |
| AAAUAGUUAGGAUAUACAUGAGGAUCACCCAUGUGGACUGAUGUCGCGUGAUUCAGUGGUAGAAGGGACUCAAA [EX2 Malc#36] | 0.0473 | 0.075 |
| CUCAAGUAAGGAUAUUGAAGAAAAGAAGAGAAAGAAAAGAACAAGAAGGUACAUGAGGAUCACCCAUGUAAGAA [EteRNA is fun!] | 0.0334 | 0.0166 |
| CUCUAGUGAGGAUAUGGAAGAAAAGAAGAGAAAGAAAAGAACCAGAAGGCACAUGAGGAUCACCCAUGUAAGAA [EteRNA is fun!] | 0.0389 | 0.0463 |
| AAAAAGGUAGGAUAUACAUGAGGAUCACCCAUGUACAUAAAUGGAGAAAAAAACAGUUGUAGAAGGGCCAAAAA [Ex3 Malc#9] | 0.0417 | 0.0345 |
| AAAGAUUGAGGAUAUACAUGAGGAUCACCCAUGUAAAAAAAAAAAAGGGUGGAAGAAAGUAGAAGGCAACAAAA [Ex 3 May 46] | 0.0806 | 0.284 |
| AAAAUGUCAGGAUAUUCGGAUAGGAAAACGAAAACCUAUCCGAAGAAGGGACAUGAGGAUCACCCAUGUAAAAA [Starry Exclusion 4.2 (cataway round 1 mod)] | 0.0814 | 0.341 |
| AAACUACUAGGAUAUACAACGGUGUCCUAACUACUAAGAAAACAUGAGGAUCACCCAUGUAGAAGGAGUAGUGA [Lauslabe] | 0.0336 | 0.0302 |
| AGCUAGUGAGGAUAUACAAGAAUAUAAACGAACAUAAAGGGACAUGAGGAUCACCCAUGUAGAAGGCACUAGCA [Diamond 73] | 0.0426 | 0.152 |
| ACAGCUGAAGGAUAUACUUGGAAAAAAAAAAAAAAAAAAAAACAUGAGGAUCACCCAUGUAGAAGGUCAGCUGA [Brourd - Exclusion 2 - Sub 2] | 0.0503 |  |
